B1: Acyl-CoA-binding protein, P07107 (parent)
chain: MSQAEFDKAAEEVKHLKTKPADEEMLFIYSHYKQATVGDINTERPGMLDFKGKAKWDAWNELKGTSKEDAMKAYIDKVEELKKKYGI

Variants of: B1
Details: Bos taurus; pH 5.3; 5 °C; GdnHCl; Fluorescence; Sodium acetate 0.02 M; structure 2ABD; whole UniProt chain shown

Variant | ddG of mutation (higher = less stable) [kcal/mol] | denaturant m value [kcal/mol/M] | unfolding free energy [kcal/mol]
MSQAEADKAAEEVKHLKTKPADEEMLFIYSHYKQATVGDINTERPGMLDFKGKAKWDAWNELKGTSKEDAMKAYIDKVEELKKKYGI [F6A] | 2.63 | 3.51 | 5.45
MSQAEFDKAGEEVKHLKTKPADEEMLFIYSHYKQATVGDINTERPGMLDFKGKAKWDAWNELKGTSKEDAMKAYIDKVEELKKKYGI [A10G] | 2 | 3.4 | 6.08
MSQAEFDKAAEEAKHLKTKPADEEMLFIYSHYKQATVGDINTERPGMLDFKGKAKWDAWNELKGTSKEDAMKAYIDKVEELKKKYGI [V13A] | 1.5 | 3.47 | 6.58
MSQAEFDKAAEEVKHAKTKPADEEMLFIYSHYKQATVGDINTERPGMLDFKGKAKWDAWNELKGTSKEDAMKAYIDKVEELKKKYGI [L16A] | 3.57 | 3.19 | 4.51
MSQAEFDKAAEEVKHLKTKAADEEMLFIYSHYKQATVGDINTERPGMLDFKGKAKWDAWNELKGTSKEDAMKAYIDKVEELKKKYGI [P20A] | 0.91 | 3.3 | 7.17
MSQAEFDKAAEEVKHLKTKPAAEEMLFIYSHYKQATVGDINTERPGMLDFKGKAKWDAWNELKGTSKEDAMKAYIDKVEELKKKYGI [D22A] | 0.4 | 3.32 | 7.68
MSQAEFDKAAEEVKHLKTKPADEEMAFIYSHYKQATVGDINTERPGMLDFKGKAKWDAWNELKGTSKEDAMKAYIDKVEELKKKYGI [L26A] | 2.02 | 3.36 | 6.06
MSQAEFDKAAEEVKHLKTKPADEEMLAIYSHYKQATVGDINTERPGMLDFKGKAKWDAWNELKGTSKEDAMKAYIDKVEELKKKYGI [F27A] | 1.53 | 3.8 | 6.55
MSQAEFDKAAEEVKHLKTKPADEEMLFIASHYKQATVGDINTERPGMLDFKGKAKWDAWNELKGTSKEDAMKAYIDKVEELKKKYGI [Y29A] | 2.52 | 3.97 | 5.56
MSQAEFDKAAEEVKHLKTKPADEEMLFIFSHYKQATVGDINTERPGMLDFKGKAKWDAWNELKGTSKEDAMKAYIDKVEELKKKYGI [Y29F] | 1.26 | 3.56 | 6.82
MSQAEFDKAAEEVKHLKTKPADEEMLFINSHYKQATVGDINTERPGMLDFKGKAKWDAWNELKGTSKEDAMKAYIDKVEELKKKYGI [Y29N] | 2.47 | 3.65 | 5.61
MSQAEFDKAAEEVKHLKTKPADEEMLFIYSHNKQATVGDINTERPGMLDFKGKAKWDAWNELKGTSKEDAMKAYIDKVEELKKKYGI [Y32N] | 0.97 | 4.95 | 7.11
MSQAEFDKAAEEVKHLKTKPADEEMLFIYSHYAQATVGDINTERPGMLDFKGKAKWDAWNELKGTSKEDAMKAYIDKVEELKKKYGI [K33A] | 1.61 | 3.39 | 6.47
MSQAEFDKAAEEVKHLKTKPADEEMLFIYSHYEQATVGDINTERPGMLDFKGKAKWDAWNELKGTSKEDAMKAYIDKVEELKKKYGI [K33E] | 1.47 | 3.42 | 6.61
MSQAEFDKAAEEVKHLKTKPADEEMLFIYSHYKAATVGDINTERPGMLDFKGKAKWDAWNELKGTSKEDAMKAYIDKVEELKKKYGI [Q34A] | 3.03 | 4.49 | 5.05
MSQAEFDKAAEEVKHLKTKPADEEMLFIYSHYKQAAVGDINTERPGMLDFKGKAKWDAWNELKGTSKEDAMKAYIDKVEELKKKYGI [T36A] | 1.28 | 3.93 | 6.8
MSQAEFDKAAEEVKHLKTKPADEEMLFIYSHYKQATVGDANTERPGMLDFKGKAKWDAWNELKGTSKEDAMKAYIDKVEELKKKYGI [I40A] | 1.06 | 3.51 | 7.02
MSQAEFDKAAEEVKHLKTKPADEEMLFIYSHYKQATVGDINTERPGMLDFKGMAKWDAWNELKGTSKEDAMKAYIDKVEELKKKYGI [K53M] | -0.48 | 3.71 | 8.56
MSQAEFDKAAEEVKHLKTKPADEEMLFIYSHYKQATVGDINTERPGMLDFKGKAAWDAWNELKGTSKEDAMKAYIDKVEELKKKYGI [K55A] | 1.41 | 3.15 | 6.67
MSQAEFDKAAEEVKHLKTKPADEEMLFIYSHYKQATVGDINTERPGMLDFKGKAMWDAWNELKGTSKEDAMKAYIDKVEELKKKYGI [K55M] | 0.22 | 3.33 | 7.86
MSQAEFDKAAEEVKHLKTKPADEEMLFIYSHYKQATVGDINTERPGMLDFKGKAKWDAWNELKGTSKADAMKAYIDKVEELKKKYGI [E68A] | 0.8 | 3.45 | 7.28
MSQAEFDKAAEEVKHLKTKPADEEMLFIYSHYKQATVGDINTERPGMLDFKGKAKWDAWNELKGTSKEDAMKAFIDKVEELKKKYGI [Y74F] | -0.03 | 3.31 | 8.11
MSQAEFDKAAEEVKHLKTKPADEEMLFIYSHYKQATVGDINTERPGMLDFKGKAKWDAWNELKGTSKEDAMKAYADKVEELKKKYGI [I75A] | 1.34 | 3.91 | 6.74
MSQAEFDKAAEEVKHLKTKPADEEMLFIYSHYKQATVGDINTERPGMLDFKGKAKWDAWNELKGTSKEDAMKAYIDKAEELKKKYGI [V78A] | 1.54 | 3.78 | 6.54
MSQAEFDKAAEEVKHLKTKPADEEMLFIYSHYKQATVGDINTERPGMLDFKGKAKWDAWNELKGTSKEDAMKAYIDKVEEAKKKYGI [L81A] | 4.57 | 3.08 | 3.51
